According to US20200024330A1:

Legend:
Assay in all cases: cell-based or functional assay
[1] = molecular target: HIV-1 Env of isolate 92UG046 (clade D) (HIV-1)
[2] = molecular target: HIV-1 Env of isolate CMU02 (HIV-1)
[3] = molecular target: HIV-1 Env of pseudovirus THR0.18 (Acute), clade B (HIV-1)
[4] = molecular target: HIV-1 NL43 envelope protein (Env) on pseudovirus (HIV-1)
[5] = molecular target: HIV-1 Env of pseudovirus MGRM-Chronic-B-008, clade B (HIV-1)
[6] = molecular target: HIV-1 MGRM-A-005 envelope glycoprotein (Env) (HIV-1)
[7] = molecular target: HIV-1 Env of isolate SF162 (HIV-1) (UniProt P19549)
HIV-1 Env of isolate SF162 (HIV-1), sequence (P19549 32-852 limits assumed): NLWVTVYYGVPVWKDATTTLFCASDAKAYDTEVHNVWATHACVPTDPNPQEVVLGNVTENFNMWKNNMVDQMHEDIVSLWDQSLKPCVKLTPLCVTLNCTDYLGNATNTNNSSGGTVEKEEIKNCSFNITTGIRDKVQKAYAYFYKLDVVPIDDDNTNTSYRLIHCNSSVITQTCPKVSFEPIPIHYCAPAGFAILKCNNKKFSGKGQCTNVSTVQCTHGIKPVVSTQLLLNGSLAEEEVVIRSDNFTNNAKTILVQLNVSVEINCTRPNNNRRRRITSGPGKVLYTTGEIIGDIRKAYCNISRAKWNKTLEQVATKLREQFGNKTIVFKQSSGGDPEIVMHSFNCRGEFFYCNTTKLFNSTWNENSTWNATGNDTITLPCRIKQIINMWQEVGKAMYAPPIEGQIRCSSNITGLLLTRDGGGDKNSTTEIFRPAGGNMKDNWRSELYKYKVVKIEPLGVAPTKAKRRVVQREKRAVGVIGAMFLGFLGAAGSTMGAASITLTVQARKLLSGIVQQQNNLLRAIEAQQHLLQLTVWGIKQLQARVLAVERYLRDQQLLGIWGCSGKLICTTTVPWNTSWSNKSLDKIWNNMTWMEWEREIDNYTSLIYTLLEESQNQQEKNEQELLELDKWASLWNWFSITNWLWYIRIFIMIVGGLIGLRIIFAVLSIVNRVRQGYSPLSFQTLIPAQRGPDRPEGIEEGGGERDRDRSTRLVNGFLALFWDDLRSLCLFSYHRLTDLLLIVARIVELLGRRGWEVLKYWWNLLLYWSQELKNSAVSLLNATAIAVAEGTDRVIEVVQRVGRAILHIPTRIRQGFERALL

[8] = molecular target: HIV-1 93RW029 envelope glycoprotein (Env) (HIV-1)
[9] = molecular target: HIV-1 Env of isolate PVO.4 (HIV-1)
[10] = molecular target: HIV-1 92UG037 envelope glycoprotein (Env) (HIV-1)

1443_C16 (PG16) (TCN-116) (antibody), sequence (VH): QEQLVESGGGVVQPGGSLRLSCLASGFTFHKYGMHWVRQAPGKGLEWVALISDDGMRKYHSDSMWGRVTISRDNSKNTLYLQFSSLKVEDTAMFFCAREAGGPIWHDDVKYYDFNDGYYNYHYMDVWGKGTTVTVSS
1443_C16 (PG16) (TCN-116) (antibody), sequence (VL): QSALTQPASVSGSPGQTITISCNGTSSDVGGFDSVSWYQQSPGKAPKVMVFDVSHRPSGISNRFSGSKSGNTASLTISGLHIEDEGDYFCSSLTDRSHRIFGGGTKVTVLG

Substance	IC50 (µg/ml), pseudovirus neutralization [1]	IC50 (µg/ml), pseudovirus neutralization [2]	IC50 (µg/ml), pseudovirus neutralization [3]	neutralization IC50 [4]	IC50 (µg/ml), pseudovirus neutralization [5]	IC50 (µg/ml), pseudovirus neutralization [6]	IC50 (µg/ml), pseudovirus neutralization [7]	IC50 (µg/ml), pseudovirus neutralization [8]	IC50, pseudovirus neutralization (TZM-bl) [9]	IC50 (µg/ml), pseudovirus neutralization [10]
1443_C16 (PG16) (TCN-116) (antibody)	1.42 µg/mL	43.6 µg/mL	1.34 µg/mL	< 0.0025 µg/mL	0.73 µg/mL	0.09 µg/mL	> 50 µg/mL	3.83 µg/mL	12.3 µg/mL	0.01 µg/mL
1495_C14 (PGC14) (antibody)	> 50 µg/mL	> 50 µg/mL	> 50 µg/mL	0.373 µg/mL	> 50 µg/mL	> 50 µg/mL	< 0.0025 µg/mL	42 µg/mL	–	> 50 µg/mL
b12 (antibody)	0.07 µg/mL	29.3 µg/mL	3.62 µg/mL	0.06 µg/mL	2.82 µg/mL	3.64 µg/mL	0.02 µg/mL	> 50 µg/mL	–	> 50 µg/mL
